Publication PMC7293036

Test system: eIF4G HEAT1 domain
Assay: MST

5'tiRNAAla
Kd: 410 nM
